According to patent US20080213284A1:
Like-named read-outs stand apart in the source and are kept apart here.

Assays:
[1] = biological target: receptor on VERO E6 cells (not identified in the filing); experiment: FACS competition against S2-Fc (330 ng/mL) on VERO E6 cells; agent at 10 µg/mL
[2] = biological target: receptor on VERO E6 cells (not identified in the filing); experiment: FACS competition against S2-Fc (330 ng/mL) on VERO E6 cells; agent at 1 µg/mL
[3] = biological target: receptor on VERO E6 cells (not identified in the filing)

Substance | Percent of Inhibition [1] [%] | Percent of Inhibition [2] [%] | Percent of Inhibition [3] [%]
Negative control (blocking agent) | 0 | 0 | 0
recombinant RBD2 (from UniProt P59594 284-735) | 100 | 100 | 100
